These results are taken from publication PMC2978359.

Broadly, the Kd is a measure of binding affinity in units of concentration.

Data set [1] addresses T1, MBD of MeCP2 (wild type) (human/mouse (residues 76-167 identical), UniProt P51608 76-167). The experiment in a line: EMSA.
Data set [2] has as its target T1, MBD of MeCP2 (wild type). The experiment in a line: EMSA/T4 endonuclease V.
The target of data set [3] is T1, MBD of MeCP2 (wild type). Briefly: EMSA/T4 endonuclease V. The source holds these as a separate data set. A general note: Mobility shift assays separate free from complexed probe on a gel.
Data set [4] deals with T1, MBD of MeCP2 (wild type). Briefly: EMSA. The source holds these as a separate data set.
Data set [5] concerns the target T1, MBD of MeCP2 (wild type). Briefly: EMSA. This is another data set of the same source.

T1 sequence (P51608 76-167): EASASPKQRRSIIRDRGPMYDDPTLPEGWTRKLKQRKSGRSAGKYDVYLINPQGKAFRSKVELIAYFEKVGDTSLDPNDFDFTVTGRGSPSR

B1: TmCG•mCGA duplex (dsDNA)
DNA 1: TAGAAGAATTTCGTTCCAGA
DNA 2: TCTGGAACGAAATTCTTCTA
modifications: 5-methyl-dC at strand 1 pos 12 and strand 2 pos 8
With B1, the Kd with MBD of MeCP2 (wild type) [1] turned out to be 35 ± 9 nM; with MBD of MeCP2 (wild type) [2], 75 ± 35 nM.

B2: CTG•mCGG single-mismatch duplex (dsDNA)
DNA 1: TAGAAGAATTCTGTTCCAGA
DNA 2: TCTGGAACGGAATTCTTCTA
modifications: 5-methyl-dC at strand 2 pos 8
Molecule B2 returned a Kd with MBD of MeCP2 (wild type) [1] of 66 ± 22 nM.

B3: C=mCG•mCGG CPD duplex (dsDNA)
DNA 1: TAGAAGAATTCCGTTCCAGA
DNA 2: TCTGGAACGGAATTCTTCTA
modifications: 5-methyl-dC at strand 1 pos 12 and strand 2 pos 8; cis-syn CPD between C11 and mC12
In the data set with MBD of MeCP2 (wild type) [3], B3 showed a Kd of 11 ± 3 nM.

B4: CmCG•mCGG duplex (BDNF promoter III) (dsDNA)
DNA 1: TAGAAGAATTCCGTTCCAGA
DNA 2: TCTGGAACGGAATTCTTCTA
modifications: 5-methyl-dC at strand 1 pos 12 and strand 2 pos 8
B4: the results for the Kd in the data set with MBD of MeCP2 (wild type) [4] and with MBD of MeCP2 (wild type) [2] were 12.5 ± 3.5 nM and 46 ± 26 nM, respectively.

B5: CmCG•mCGG in AT tract (dsDNA)
DNA 1: TTATTTTTATCCGTTTTTAATTAT
DNA 2: ATAATTAAAAACGGATAAAAATAA
modifications: 5-methyl-dC at strand 1 pos 12 and strand 2 pos 12
Take B5: the Kd with MBD of MeCP2 (wild type) [5] was approximately 15 nM.

B6: T=TmCG•mCGAA CPD duplex (dsDNA)
DNA 1: TAGAAGAATTTCGTTCCAGA
DNA 2: TCTGGAACGAAATTCTTCTA
modifications: 5-methyl-dC at strand 1 pos 12 and strand 2 pos 8; cis-syn CPD between T10 and T11
Consider B6, for which the dissociation constant (Kd) with MBD of MeCP2 (wild type) [3] is 13 ± 3 nM.

B7: T=TTmCG•mCGAAA CPD duplex (dsDNA)
DNA 1: TAGAAGAATTTCGTTCCAGA
DNA 2: TCTGGAACGAAATTCTTCTA
modifications: 5-methyl-dC at strand 1 pos 12 and strand 2 pos 8; cis-syn CPD between T9 and T10
In the data set with MBD of MeCP2 (wild type) [3], B7 came in with a Kd of 47 ± 14 nM. This Kd lies about 3.6-fold higher than the previous one.
